Results on nine substances are retold here after article PMC8202330, “Phosphorylation of the LIR Domain of SCOC Modulates ATG8 Binding Affinity and Specificity” (Journal of Molecular Biology, 2021).

The target in experiment [1] is SCOC LIR peptide phosphorylated at S12 and S18 (BLI) (human). Kind of experiment: BLI; biotinylated LIR peptide immobilized on streptavidin biosensor, ATG8 in solution; 25 mM Tris pH 7.5, 150 mM NaCl, 0.5 mM TCEP, 0.1% Tween20, 1 mg/ml BSA; 25 °C; Kd from response against concentration. A general note: Biolayer interferometry detects binding as a change in optical thickness at a sensor tip.

A further experiment has as its target LC3C (UniProt Q9BXW4). Kind of experiment: bio-layer interferometry, immobilised biotin peptide. The settings on record: reference: unphosphorylated WT peptide.
A further experiment has as its target LC3A (UniProt Q9H492). The description is as above. To be noted: reference: unphosphorylated WT peptide.
The next experiment concerns the target GABARAPL1 (UniProt Q9H0R8). The experiment is described as above. The settings on record: reference: unphosphorylated WT peptide.
A further experiment concerns the target GABARAP (UniProt O95166). Described as above. The settings on record: reference: unphosphorylated WT peptide.
In a further experiment the target is LC3B (UniProt Q9GZQ8). The description is as above. To be noted: reference: unphosphorylated WT peptide.
The target of the next experiment is GABARAPL2 (UniProt P60520). Described as above. The settings on record: reference: unphosphorylated WT peptide.
The target of experiment [2] is SCOC aa 6–18 LIR peptide (human). Description: BLI; biotinylated LIR peptide immobilized on streptavidin biosensor, ATG8 in solution; 25 mM Tris pH 7.5, 150 mM NaCl, 0.5 mM TCEP, 0.1% Tween20, 1 mg/ml BSA; 25 °C; Kd from response against concentration.
In experiment [3] the target is SCOC aa 11–25 LIR peptide (human). Described as above.
The target in experiment [4] is SCOC pS12 LIR peptide (human). Described as above.
Sequence of SCOC pS12 LIR peptide (human) (peptide, as listed by the source): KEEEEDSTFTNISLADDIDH

Sequence of LC3C (Q9BXW4 whole entry, looked up): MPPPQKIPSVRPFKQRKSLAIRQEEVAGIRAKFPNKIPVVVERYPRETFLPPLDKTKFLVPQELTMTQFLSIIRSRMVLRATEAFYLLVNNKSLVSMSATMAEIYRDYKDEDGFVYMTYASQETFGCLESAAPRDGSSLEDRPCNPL
Sequence of GABARAPL1 (for BLI) (Q9H0R8 whole entry): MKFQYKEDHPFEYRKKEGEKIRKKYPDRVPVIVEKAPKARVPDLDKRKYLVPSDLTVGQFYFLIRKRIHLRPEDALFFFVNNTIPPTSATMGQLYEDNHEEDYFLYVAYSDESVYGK
Sequence of GABARAPL1 (Q9H0R8 whole entry, looked up): as the sequence (Q9H0R8 whole entry) above
Sequence of GABARAP (O95166 whole entry, looked up): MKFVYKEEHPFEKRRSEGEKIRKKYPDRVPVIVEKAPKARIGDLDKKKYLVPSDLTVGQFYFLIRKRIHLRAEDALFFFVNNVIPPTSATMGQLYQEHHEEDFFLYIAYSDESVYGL
Sequence of GABARAPL2 (P60520 whole entry, looked up, the tested form may be a part): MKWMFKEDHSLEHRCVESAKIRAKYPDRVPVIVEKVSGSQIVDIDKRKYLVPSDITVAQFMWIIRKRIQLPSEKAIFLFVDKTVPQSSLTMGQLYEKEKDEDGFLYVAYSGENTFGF
Sequence of LC3C (for BLI) (Q9BXW4 1-126): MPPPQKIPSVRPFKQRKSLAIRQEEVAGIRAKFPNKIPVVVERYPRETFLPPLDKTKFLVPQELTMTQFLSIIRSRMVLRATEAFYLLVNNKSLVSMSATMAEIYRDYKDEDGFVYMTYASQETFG

In experiment [1], “LC3C (for BLI) (from UniProt Q9BXW4 1-126) (natural protein)” displayed a fold increase in affinity over SCOC WT LIR peptide of 21 fold.

As for “SCOC (isoform 3) LIR domain, 6-25 (from UniProt Q9UIL1-2) pT15 peptide”, the fold change result in the experiment with LC3C (sites T15) was “stronger”; with LC3A (sites T15) it was “stronger”; in the experiment with GABARAPL1 (sites T15), “same”; with GABARAP (sites T15), “same”; in the experiment with LC3B (sites T15), “stronger”; in the experiment with GABARAPL2 (sites T15) it was “same”.

Turning to “SCOC (isoform 3) LIR domain, 6-25 (from UniProt Q9UIL1-2) pS12/pT15 peptide”, the fold change result in the experiment with LC3C (sites S12,T15), in the experiment with LC3A (sites S12,T15), with GABARAPL1 (sites S12,T15), with GABARAP (sites S12,T15), in the experiment with LC3B (sites S12,T15) and with GABARAPL2 (sites S12,T15) was “stronger” in each case.

As for “GABARAPL1 (for BLI) (from UniProt Q9H0R8 1-117) (natural protein)”, the fold decrease in affinity against SCOC WT LIR peptide amounted to 4 fold in experiment [2] and 104 fold in experiment [3]. Also, in [4], the fold increase in affinity over SCOC WT LIR peptide was 2 fold.

Consider “SCOC (isoform 3) LIR domain, 6-25 (from UniProt Q9UIL1-2) pS18 peptide”, for which the fold change result in the experiment with LC3C (sites S18) was “stronger”; in the experiment with LC3A (sites S18) it was “stronger”; in the experiment with GABARAPL1 (sites S18) it was “same”; with GABARAP (sites S18), “same”; with LC3B (sites S18), “stronger”; with GABARAPL2 (sites S18), “same”.

As for “SCOC (isoform 3) LIR domain, 6-25 (from UniProt Q9UIL1-2) pS12/pS18 peptide”, the fold change entry with LC3C (sites S12,S18), with LC3A (sites S12,S18), with GABARAPL1 (sites S12,S18), with GABARAP (sites S12,S18), with LC3B (sites S12,S18) and with GABARAPL2 (sites S12,S18) was “stronger” each time.

In [1], “LC3A (for BLI) (from UniProt Q9H492 1-121) (natural protein)” returned a fold increase in affinity over SCOC WT LIR peptide of 17 fold.

Turning to “SCOC (isoform 3) LIR domain, 6-25 (from UniProt Q9UIL1-2) pS12 peptide”, the fold change entry in the experiment with LC3C (sites S12), with LC3A (sites S12), with GABARAPL1 (sites S12), with GABARAP (sites S12), with LC3B (sites S12) and in the experiment with GABARAPL2 (sites S12) was “stronger” throughout.

Regarding “SCOC (isoform 3) LIR domain, 6-25 (from UniProt Q9UIL1-2) pT13 peptide”, the “binding against the reference” value in the experiment with LC3C (sites T13), in the experiment with GABARAPL1 (sites T13), with GABARAP (sites T13), in the experiment with LC3B (sites T13) and with GABARAPL2 (sites T13) was “same” throughout.
